From US9504755B2, “Multi-arm polymeric alkanoate conjugates” (Nektar Therapeutics, priority 2008, dated 2016)

Columns and labels:
[1] = Pharmacokinetics after IV infusion in Beagle dogs; format: in vivo, dog
Experimental: The objective of the study was to assess the pharmacokinetics and excretion of docetaxel and 4-ARM-PEG20K-BA-docetaxel after intravenous infusion to dogs.
Pharmacokinetics were evaluated in male dogs (4 dogs/dose level) dosed with 0, 0.75, 2, or 4 mg/kg (0, 15, 40, and 80 mg/m^2/dose) of 4-ARM-PEG20K-BA-docetaxel or 0.75 mg/kg (15 mg/m^2) docetaxel. 4-ARM-PEG20K-BA-docetaxel and docetaxel were administered via a cephalic or saphenous vein disposable catheter as 60-min intravenous infusions at 4 mL/kg/hr. Seventeen blood samples were obtained by jugular venipuncture or Abbacoth IV catheter between 0 and 168 hr post-dose. Plasma concentrations of 4-ARM-PEG20K-BA-docetaxel and docetaxel were determined.

[2] = Plasma and tumor pharmacokinetics in H460 tumor-bearing nude mice; format: in vivo, mouse
Experimental: To assess whether the improved antitumor activity was due to greater plasma and tumor docetaxel exposure following 4-ARM-PEG20K-BA-DOC administration, plasma and tumor homogenates were analyzed after a single IV administration of 4-ARM-PEG20K-BA-DOC or docetaxel in mice bearing H460 tumors. In looking at each of 4-ARM-PEG20K-BA-DOC and docetaxel dosed at their respective maximum tolerated doses (MTDs) of 33 and 25 mg/kg, the following was observed. […] The maximum plasma docetaxel concentration with 4-ARM-PEG20K-BA-DOC was 13-fold lower than that with docetaxel.
The objective of this study was to compare docetaxel pharmacokinetics following 4-ARM-PEG20K-BA-docetaxel with that following docetaxel administration, in plasma and tumor tissue of athymic female mice bearing H460 NSCLC tumors and to determine the effects on complete blood counts. This example summarizes the pharmacokinetic results.
H460 tumor cells were grown in vitro and implanted subcutaneously into female HRLN nude mice. When tumor sizes reached between 172 and 288 mg, animals were dosed by intravenous bolus injection with 25 mg/kg docetaxel or 33 mg/kg 4-ARM-PEG20K-BA-docetaxel at a dosing volume of 10 mL/kg. These dose levels correspond to the maximum tolerated doses for docetaxel and 4-ARM-PEG20K-BA-docetaxel administered on a q7d×3 schedule in this tumor model. Blood and tumor samples (n=7 timepoints with n=3/timepoint) were collected from 0 to 7 days after IV injection. Plasma and tumor samples were analyzed for docetaxel and 4-ARM-PEG20K-BA-docetaxel.

[3] = male dogs, average over 0.75, 2, 4 mg/kg
[4] = male dogs, single IV dose 0.75 mg/kg
[5] = male dogs, single IV dose 2 mg/kg
[6] = male dogs, single IV dose 4 mg/kg
[7] = 19 mg/kg conjugate (extrapolated) vs 25 mg/kg docetaxel
[8] = 33 mg/kg conjugate vs 25 mg/kg docetaxel
[9] = 33 mg/kg conjugate vs 25 mg/kg docetaxel, listed as Conjugate Lot 1
[10] = 33 mg/kg conjugate vs 25 mg/kg docetaxel, listed as Conjugate Lot 2

4-ARM-PEG20K-Butanoate-Linked Docetaxel Conjugate [4-ARM-PEG20K-BA-DOC]
plasma docetaxel AUC, fold lower than after docetaxel ([1]; dogs, equivalent dose levels of 0.75 mg/kg): ~7 fold
CL, analyte conjugate, average (±SD) [1, 3]: 0.13 mL/min/kg
T1/2, analyte conjugate, average (±SD) [1, 3]: 32 ± 4 h
Vss, analyte conjugate, average (±SD) [1, 3]: 0.26 ± 0.04 L/kg
T1/2, analyte conjugate, average (±SD) ([1]; male dogs, average over 0.75, 2, 4 mg/kg, listed as 4-ARM-PEG20K-BA-docetaxel): 31 h
AUCinf, analyte conjugate [1, 4]: 104.247 µg·h/mL
AUClast, analyte conjugate [1, 4]: 93.084 µg·h/mL
AUClast, analyte docetaxel [1, 4]: 0.064 µg·h/mL
CL, analyte conjugate [1, 4]: 0.12 mL/min/kg
Cmax, analyte conjugate [1, 4]: 7084 ng/mL
Cmax, analyte docetaxel [1, 4]: 2.1 ng/mL
T1/2, analyte conjugate [1, 4]: 28 h
Tmax, analyte conjugate [1, 4]: 1.1 h
Tmax, analyte docetaxel [1, 4]: 0.88 h
Vss, analyte conjugate [1, 4]: 0.23 L/kg
AUCinf, analyte conjugate [1, 5]: 245.446 µg·h/mL
AUClast, analyte conjugate [1, 5]: 232.378 µg·h/mL
AUClast, analyte docetaxel [1, 5]: 0.153 µg·h/mL
CL, analyte conjugate [1, 5]: 0.14 mL/min/kg
Cmax, analyte conjugate [1, 5]: 17731 ng/mL
Cmax, analyte docetaxel [1, 5]: 6.3 ng/mL
T1/2, analyte conjugate [1, 5]: 35 h
Tmax, analyte conjugate [1, 5]: 1.4 h
Tmax, analyte docetaxel [1, 5]: 1.1 h
Vss, analyte conjugate [1, 5]: 0.26 L/kg
AUCinf, analyte conjugate [1, 6]: 611.47 µg·h/mL
AUClast, analyte conjugate [1, 6]: 597.336 µg·h/mL
AUClast, analyte docetaxel [1, 6]: 0.326 µg·h/mL
CL, analyte conjugate [1, 6]: 0.12 mL/min/kg
Cmax, analyte conjugate [1, 6]: 33570 ng/mL
Cmax, analyte docetaxel [1, 6]: 19 ng/mL
T1/2, analyte conjugate [1, 6]: 32 h
Tmax, analyte conjugate [1, 6]: 6.8 h
Tmax, analyte docetaxel [1, 6]: 12 h
Vss, analyte conjugate [1, 6]: 0.31 L/kg
AUC, docetaxel in plasma ([2]; 19 mg/kg (58% MTD), extrapolated from the 33 mg/kg dose): 3488^# hr*ng/mL
4-ARM-PEG20K-BA-DOC to Docetaxel Ratio, plasma AUC [2, 7]: 0.6
4-ARM-PEG20K-BA-DOC to Docetaxel Ratio, tumor AUC [2, 7]: 1.3
conjugate AUC, fold lower in tumor compared to plasma ([2]; 33 mg/kg): approximately 2 fold
conjugate Cmax, fold lower in tumor compared to plasma ([2]; 33 mg/kg): 17 fold
Conjugate to Docetaxel ratio, AUC, docetaxel in plasma [2, 8]: 1.0
Conjugate to Docetaxel ratio, AUC, docetaxel in tumor [2, 8]: 2.3
maximum plasma docetaxel concentration, fold lower than with docetaxel [2, 8]: 13 fold
plasma docetaxel AUC compared with docetaxel treatment [2, 8]: similar
tumor docetaxel AUC, fold greater than for docetaxel [2, 8]: 2 fold
maximum plasma docetaxel concentration, fold lower than with docetaxel ([2]; 33 mg/kg conjugate vs 25 mg/kg docetaxel, listed as 4-ARM-PEG20K-BA-docetaxel): about 14 fold
Conjugate to Docetaxel ratio, AUC, docetaxel in plasma [2, 9]: 1.0
Conjugate to Docetaxel ratio, AUC, docetaxel in tumor [2, 9]: 2.3
Conjugate to Docetaxel ratio, Cmax, docetaxel in plasma [2, 9]: 0.08
Conjugate to Docetaxel ratio, Cmax, docetaxel in tumor [2, 9]: 1.3
Conjugate to Docetaxel ratio, AUC, docetaxel in plasma [2, 10]: 0.9
Conjugate to Docetaxel ratio, AUC, docetaxel in tumor [2, 10]: 2.7
Conjugate to Docetaxel ratio, Cmax, docetaxel in plasma [2, 10]: 0.06
Conjugate to Docetaxel ratio, Cmax, docetaxel in tumor [2, 10]: 2.0
conjugate tumor to plasma ratio ([2]; by 168 hr post-dose, 33 mg/kg): about 7
plasma docetaxel concentration ([2]; for up to 168 hr after single IV 33 mg/kg conjugate): above 5 ng/mL
tumor docetaxel concentrations, fold higher than after docetaxel ([2]; from 24 hr post dose through the end of sampling): approximately 5 fold
Tmax, analyte conjugate, plasma ([2]; single IV 33 mg/kg conjugate): 0.5 h
Tmax, analyte conjugate, tumor ([2]; single IV 33 mg/kg conjugate, listed as 4-ARM-PEG20K-BA-docetaxel, 33 mg/kg): ≤ 4 h
AUClast, analyte conjugate, plasma ([2]; single IV 33 mg/kg conjugate, listed as Conjugate Lot 1, 33 mg/kg): 1097.606 µg·h/mL
